Columns and labels:
hnRNP H3 (mouse) = assay: pull-down/MS; conditions: Pull-down: 20 mM Tris-HCl pH 7.5, 200 mM NaCl, 6 mM EDTA, 5 mM KF, 5 mM beta-glycerophosphate, 4 h at 4 C, 100 ug nuclear extract; EMSA: BersinBio RNA-EMSA …
[1] = test system: hnRNP H1 (B cell nuclear extract) (mouse); assay: pull-down/MS; conditions: Pull-down: 20 mM Tris-HCl pH 7.5, 200 mM NaCl, 6 mM EDTA, 5 mM KF, 5 mM beta-glycerophosphate, 4 h at 4 C, 100 ug nuclear extract; EMSA: BersinBio RNA-EMSA …
hnRNP H2 (mouse) = assay: pull-down/MS; conditions: Pull-down: 20 mM Tris-HCl pH 7.5, 200 mM NaCl, 6 mM EDTA, 5 mM KF, 5 mM beta-glycerophosphate, 4 h at 4 C, 100 ug nuclear extract; EMSA: BersinBio RNA-EMSA …
CELF2 (mouse) = assay: pull-down/MS; conditions: Pull-down: 20 mM Tris-HCl pH 7.5, 200 mM NaCl, 6 mM EDTA, 5 mM KF, 5 mM beta-glycerophosphate, 4 h at 4 C, 100 ug nuclear extract; EMSA: BersinBio RNA-EMSA …
hnRNP F = target: T1, hnRNP F (mouse, UniProt Q9Z2X1 1-415); assay: EMSA; Pull-down: 20 mM Tris-HCl pH 7.5, 200 mM NaCl, 6 mM EDTA, 5 mM KF, 5 mM beta-glycerophosphate, 4 h at 4 C, 100 ug nuclear extract; EMSA: BersinBio RNA-EMSA kit, 12.5 nM biotin-RNA, 200 ng protein; conditions: protein: recombinant, tags: His
T1 sequence: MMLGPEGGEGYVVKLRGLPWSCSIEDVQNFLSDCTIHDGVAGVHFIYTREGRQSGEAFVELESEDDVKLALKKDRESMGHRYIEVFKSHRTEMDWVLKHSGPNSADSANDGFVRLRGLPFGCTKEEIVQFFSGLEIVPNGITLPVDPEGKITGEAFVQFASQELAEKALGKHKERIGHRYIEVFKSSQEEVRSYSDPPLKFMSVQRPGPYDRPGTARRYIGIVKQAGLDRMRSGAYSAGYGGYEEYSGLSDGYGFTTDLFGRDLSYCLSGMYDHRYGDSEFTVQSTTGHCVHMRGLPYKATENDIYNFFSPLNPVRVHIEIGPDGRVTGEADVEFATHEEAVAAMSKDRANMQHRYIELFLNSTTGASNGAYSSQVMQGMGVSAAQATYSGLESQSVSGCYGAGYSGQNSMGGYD

Cd40 exon 6 sense RNA gave a binding signal (fold LFQ (sense/antisense)) (hnRNP H3 (mouse)) of over 5, a binding signal (fold LFQ (sense/antisense)) [1] of over 5 and a binding signal (fold LFQ (sense/antisense)) (hnRNP H2 (mouse)) of over 5. For the same molecule, the binding signal (fold LFQ (sense/antisense)) (CELF2 (mouse)) was over 5.

UCAGGAGAGGAAAGGGAGGGAGGGU (ssRNA) [I7-WT]: binds (hnRNP F; label: 5' biotin).

UCCAGGGGAGAAUGGCCUUGCCAAGUCUUUGGGAAGCAGGGAACU (ssRNA) [I6-WT]: binds (hnRNP F).
